Several values for one entry are separate records, joined by “and”; a condition that tells them apart may be missing. Identical values can stand only once.
Experiments:
Assay in all cases: Number and Brightness (N&B) fluorescence fluctuation microscopy
[1] = molecular target: PUUV SP-mCh2-Gc (Puumala orthohantavirus glycoprotein Gc labelled with mCherry2) (Puumala orthohantavirus (PUUV), strain Sotkamo/V-2969/81)
[2] = molecular target: PUUV SP-mCh2-Gn (Puumala orthohantavirus glycoprotein Gn labelled with mCherry2) (Puumala orthohantavirus (PUUV), strain Sotkamo/V-2969/81)
[3] = molecular target: PUUV YFP-NP (Puumala orthohantavirus nucleoprotein labelled with yellow fluorescent protein) (Puumala orthohantavirus (PUUV), strain Sotkamo/V-2969/81) (UniProt P27313)

“PUUV SP-mCh2-Gc (Puumala orthohantavirus glycoprotein Gc labelled with mCherry2) (natural protein)” was tested, and the stoichiometry N [1] was under 8.

“PUUV SP-mCh2-Gn (Puumala orthohantavirus glycoprotein Gn labelled with mCherry2) (natural protein)” was tested, and the stoichiometry N [2] was under 4.

In the case of “PUUV YFP-NP (Puumala orthohantavirus nucleoprotein labelled with yellow fluorescent protein) (from UniProt P27313 1-433) (natural protein)”, the stoichiometry N [3] was < 10 and 4 and 8.

— article PMC12298772
